Test results published in IntAct's records for PubMed 38029384.

B1: Coiled-coil domain-containing protein 124 (Homo sapiens), Q96CT7 (parent)
chain: MPKKFQGENTKSAAARARRAEAKAAADAKKQKELEDAYWKDDDKHVMRKEQRKEEKEKRRLDQLERKKETQRLLEEEDSKLKGGKAPRVATSSKVTRAQIEDTLRRDHQLREAPDTAEKAKSHLEVPLEENVNRRVLEEGSVEARTIEDAIAVLSVAEEAADRHPERRMRAAFTAFEEAQLPRLKQENPNMRLSQLKQLLKKEWLRSPDNPMNQRAVPFNAPK

Key:
npm_human NPM1, P06748 [1] = variants of: B1; settings: with npm_human NPM1, P06748
npm_human NPM1, P06748 [2] = variants of: B1; settings: with npm_human NPM1, P06748; remark: listed apart in the source

Chain of npm_human NPM1, P06748 (P06748 whole entry): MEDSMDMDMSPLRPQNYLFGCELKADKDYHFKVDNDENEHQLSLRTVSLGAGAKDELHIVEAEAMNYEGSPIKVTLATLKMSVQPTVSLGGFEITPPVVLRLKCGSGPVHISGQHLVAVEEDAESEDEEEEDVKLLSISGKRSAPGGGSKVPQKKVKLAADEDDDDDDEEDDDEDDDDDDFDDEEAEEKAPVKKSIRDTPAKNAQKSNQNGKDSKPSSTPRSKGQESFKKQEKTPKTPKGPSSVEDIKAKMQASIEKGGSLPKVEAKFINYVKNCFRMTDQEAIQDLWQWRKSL

effect of a mutation on the interaction (npm_human NPM1, P06748 [1])	effect of a mutation on the interaction (npm_human NPM1, P06748 [2])	Variant
decreasing interaction strength	with no effect	S141A
decreasing interaction strength	with no effect	S122A;S141A
decreasing interaction strength	disrupting interaction strength	S122A
